Assay results from the supplement of paper PMC10567573.

B1: ZMYND11 (parent)
chain: YCSIKCQQEHWHAEHKRTCRRKR

Variants of: B1
Assay: protein stability index of a GFP-peptide fusion (GPS, HEK-293T) (PSI 1-6); higher = more stable
Settings: c terminus: native
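Note: lentivirally expressed fusions sorted by FACS into six bins by GFP to DsRed ratio, PSI derived from sequencing read proportions per bin multiplied by bin number.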

Protein stability index of substitutions, site by site:
A13: F 1.83, K 2.65, R 2.49, M 2.86, N 2.78, G 2.62, P 1.9, I 2.58, V 2.89, T 1.98, Q 2.18, H 3.55, D 3.16, C 2.15, Y 2.1, L 1.61
Q7: S 3.18, I 2.44, H 2.69, C 1.95, M 2.15, D 2.56, W 1.53, F 1.67, L 2.21, Y 2.35, T 2.63, A 2.36, K 3.05, G 2.46, V 1.37
C6: N 1.76, R 1.56, V 2.59, I 1.78, W 1.77, A 2.39, L 1.75, H 2.9, E 2.87, G 2.74, F 1.96, Y 2.07
Q8: H 2.21, N 2.55, D 2.7, R 2.2, C 2.51, K 2.77, T 1.86, G 2.47, E 2.34, F 2.84, W 1.85, I 1.49, S 2.51, L 1.72, V 1.78, M 2.48
C2: A 2.1, E 2.87, V 1.45, D 3.76, S 3.1, L 2.32, T 3.44, H 1.54, I 1.92, Y 2.85, K 2.68, N 3.64, F 2.89
H12: V 1.54, P 2.64, C 2.09, T 2.33, R 2.53, A 2.35, L 2.53, E 2.67, M 1.31, I 1.59, D 2.82, Y 3.37, Q 2.36
H10: A 1.95, C 1.54, Y 1.73, Q 2.45, G 2.81, N 3.26, R 3.33, P 2.1, M 1.4, V 1.11, D 1.96, I 1.92, S 2.36, L 1.65
K5: H 2.07, E 2.51, C 3.25, F 1.67, Y 2.91, I 1.56, R 3.15, A 2.09, L 2.09, M 2.27, D 2.63, P 1.75, N 2.53
Y1: L 2.86, P 3.46, C 3.8, I 3.23, S 4.09, A 3.95, Q 3.91, K 3.12, T 3.67, N 3.79, R 3.62, M 3.94, G 3.74, F 1.67
R17: D 2.63, L 2.25, P 2.89, A 2.61, Y 1.82, S 2.77, H 2.44, Q 2.39, K 2.27, W 1.56, I 2.58, M 2.32, F 1.8
H15: P 2.71, Q 2.06, G 2.44, M 1.6, C 2.38, K 2.01, S 2.44, I 1.95, F 1.44, W 1.69
S3: W 1.51, C 3.31, M 2.19, L 1.7, V 2.36, R 2.19, Q 2.59, I 1.84, F 1.11, A 1.96, H 2.24, G 1.86, D 3.07, T 2.48, Y 1.94, E 3.27, K 2.61
T18: K 2.84, Q 3.08, V 1.61, P 2.08, N 3.18, A 2.36, C 2.85, G 2.39, W 2.16, S 2.56, R 2.29, L 1.27, D 2.95, E 2.56, H 2.5, I 2.76
R21: V 2.61, H 1.97, W 1.94, D 1.96, M 2.4, Q 2.04, P 1.52, S 3.06, G 2.84, E 2.43, T 2.41, N 1.98, Y 2.2, I 2.99, K 2.92
I4: F 2.66, H 2.62, D 2.6, W 1.89, L 2.14, S 2.51, P 2.38, R 2.79, N 2.9, V 2.51, G 1.84, T 2.08, Q 1.94, E 3.25, A 2.76
R20: D 1.76, T 3.02, I 1.35, F 3.4, W 1.98, G 2.65, S 1.99, Y 2.28, A 2.33, Q 1.51, K 1.72, V 2.8, L 2.17, N 2.02, H 2.2
K16: N 2.11, G 2.83, Q 2.34, E 2.46, Y 1.62, V 2.39, L 2.42, S 2.56, F 1.95, R 1.76, A 2.53, C 2.74, D 2.43, T 2.71
W11: H 3.45, E 4.32, C 3.41, M 3.58, S 3.2, Q 4.24, L 2.97, V 3.48, I 3.03, P 4.14, N 3.98, D 4.43, T 4.7, Y 3.32, G 4.05, F 2.76, K 3.52
R23: C 2.04, V 1.26, P 3.21, G 5.07, W 4.23, Y 1.41, K 2.11, A 2.28, E 2.77, T 2.26, M 2.15, F 1.58, H 2.26, L 2.2
C19: A 2.84, D 3.46, T 2.77, F 2.24, G 2.71, P 3.4, Y 3.63, R 2.76, Q 2.19, E 2.75, I 2.72, V 2.48, N 2.21, S 2.82, H 2.71
K22: H 1.74, I 2.37, S 3.04, C 2.6, M 1.55, E 2.41, P 1.94, Y 1.53, A 1.83, Q 2.64, V 2.15, W 2.97, T 1.91, D 1.85, G 2.33, R 1.79
E9: D 2.31, T 1.97, N 1.94, W 2.37, V 2.93, G 2.89, F 2.11, S 1.68, Y 1.93, K 2.17, P 2.11, Q 1.52, R 2.6, H 2.78, A 2.65
E14: D 2.26, T 2.36, R 2.35, N 2.17, Y 2.22, A 2.94, G 3.11, Q 2.26, H 2.53, C 2.54, W 1.71, P 1.84, M 1.77, K 2.92, F 1.76, L 1.87
